In the supplement of paper PMC7125110:
± gives the standard error. For some of these results: This sample holds only a part of the variants without activity.

B1: glmS ribozyme (parent)
chain: AUAAAAGCGCCAGAACUACAGAAAUGUAGUUGACGAGGAGGAGGUUUAUCGAAUUUUCGGCGGAUGCCUCCAAA

What was measured:
Details in all cases: with glucosamine-6-phosphate
glucosamine-6-phosphate [1] = variants of: B1; assay: kcat; higher = faster cleavage; RNA array
Method in brief: (§1)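 Over ~14 h at 37 °C, tiles were imaged as glucosamine-6-phosphate (40 μM to 10 mM) in HEPES/KCl/Mg(OAc)2 buffer flowed across sequenced MiSeq chips. The chips carried barcoded ribozyme variants transcribed in situ by E. coli RNA polymerase and tracked with a hybridised Cy3 probe. After normalisation to baseline and to non-cleaving reference variants, one- or two-exponential decay fits of per-tile medians gave kobs. kcat and KM followed from weighted Michaelis–Menten fits across concentrations.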

glucosamine-6-phosphate [2] = variants of: B1; assay: KM; higher = weaker cofactor use; RNA array
Method in brief: as §1

glucosamine-6-phosphate [3] = variants of: B1; assay: self-cleavage kobs at 40 uM GlcN6P; higher = faster cleavage; RNA array
Method in brief: as §1

glucosamine-6-phosphate [4] = variants of: B1; assay: self-cleavage kobs at 160 uM GlcN6P; higher = faster cleavage; RNA array
Method in brief: as §1

glucosamine-6-phosphate [5] = variants of: B1; assay: self-cleavage kobs at 2500 uM GlcN6P; higher = faster cleavage; RNA array
Method in brief: as §1

glucosamine-6-phosphate [6] = variants of: B1; assay: self-cleavage kobs at 10000 uM GlcN6P; higher = faster cleavage; RNA array
Method in brief: as §1

glucosamine-6-phosphate [7] = variants of: B1; assay: self-cleavage kobs at 640 uM GlcN6P; higher = faster cleavage; RNA array
Method in brief: as §1

Variant	kcat (glucosamine-6-phosphate [1])	KM (glucosamine-6-phosphate [2])	self-cleavage kobs at 40 uM GlcN6P (glucosamine-6-phosphate [3])	self-cleavage kobs at 160 uM GlcN6P (glucosamine-6-phosphate [4])	self-cleavage kobs at 2500 uM GlcN6P (glucosamine-6-phosphate [5])	self-cleavage kobs at 10000 uM GlcN6P (glucosamine-6-phosphate [6])	self-cleavage kobs at 640 uM GlcN6P (glucosamine-6-phosphate [7])
A6G U30G	0.000154 ± 1.6e-05 s⁻¹	5.37 ± 1.4 mM	< 1e-05 s⁻¹	< 1e-05 s⁻¹	5.13e-05 ± 1.9e-05 s⁻¹	9.98e-05 ± 1.4e-05 s⁻¹	
A39U A42C	0.000556 ± 3.1e-05 s⁻¹	3.03 ± 0.29 mM		2.58e-05 ± 7.6e-06 s⁻¹	0.000273 ± 3.6e-05 s⁻¹	0.000419 ± 3.9e-05 s⁻¹	9.53e-05 ± 1.1e-05 s⁻¹
U57G G66A	2.15e-05 ± 3.2e-06 s⁻¹		< 1e-05 s⁻¹				
G41C A52G	1.14e-05 ± 2.5e-06 s⁻¹						
A12G G32C C68G	1.4e-05 ± 2.2e-06 s⁻¹						
A15U C50A	1.29e-05 ± 3.8e-06 s⁻¹						
G51A C67U	< 1e-05 s⁻¹		< 1e-05 s⁻¹				
A14U U57C	7.65e-05 ± 1.4e-05 s⁻¹				5.75e-05 ± 1.1e-05 s⁻¹	6.38e-05 ± 1.2e-05 s⁻¹	
G43U U65A	4.13e-05 ± 2e-06 s⁻¹	5.67 ± 0.73 mM		< 1e-05 s⁻¹		2.64e-05 ± 1.1e-05 s⁻¹	< 1e-05 s⁻¹
G60C C68A	1.32e-05 ± 4.3e-06 s⁻¹		< 1e-05 s⁻¹			< 1e-05 s⁻¹	
A12G G40A	0.000633 ± 0.00014 s⁻¹	4.04 ± 1.3 mM		1.6e-05 ± 7.3e-06 s⁻¹	0.000218 ± 2.3e-05 s⁻¹	0.000486 ± 6.3e-05 s⁻¹	9.61e-05 ± 8.9e-06 s⁻¹
A48U A64U	0.000129 ± 1.1e-05 s⁻¹	5.51 ± 1 mM			4.13e-05 ± 1.2e-05 s⁻¹	8.33e-05 ± 1.3e-05 s⁻¹	
G40U U47G	0.000765 ± 0.00012 s⁻¹	0.908 ± 0.25 mM	4.04e-05 ± 1e-05 s⁻¹	0.000115 ± 2.6e-05 s⁻¹	0.000699 ± 0.00013 s⁻¹	0.000681 ± 0.00011 s⁻¹	0.000262 ± 5.2e-05 s⁻¹
U30C U46G	3.27e-05 ± 2.8e-06 s⁻¹	5.04 ± 1 mM					
U46G A48G	7.99e-05 ± 1e-06 s⁻¹	1.25 ± 0.069 mM	< 1e-05 s⁻¹		5.4e-05 ± 1.2e-05 s⁻¹	7.08e-05 ± 1e-05 s⁻¹	
G44A C67G	0.000462 ± 7e-05 s⁻¹	1.7 ± 0.58 mM		2.41e-05 ± 1e-05 s⁻¹	0.000355 ± 3.8e-05 s⁻¹	0.000371 ± 3e-05 s⁻¹	0.000128 ± 1.5e-05 s⁻¹
A48U U55A U56C	4.34e-05 ± 3.5e-06 s⁻¹				3.8e-05 ± 1.3e-05 s⁻¹	4.04e-05 ± 1e-05 s⁻¹	
A39C U65A	0.000512 ± 3.7e-05 s⁻¹	4.22 ± 0.53 mM			0.000191 ± 2.8e-05 s⁻¹	0.000359 ± 4.1e-05 s⁻¹	6.9e-05 ± 1.1e-05 s⁻¹
A12C G13A	0.000473 ± 0.00016 s⁻¹				0.000302 ± 5.1e-05 s⁻¹	0.00032 ± 5.7e-05 s⁻¹	6.42e-05 ± 1.2e-05 s⁻¹

Variant	kcat (glucosamine-6-phosphate [1])	KM (glucosamine-6-phosphate [2])	self-cleavage kobs at 40 uM GlcN6P (glucosamine-6-phosphate [3])	self-cleavage kobs at 160 uM GlcN6P (glucosamine-6-phosphate [4])	self-cleavage kobs at 2500 uM GlcN6P (glucosamine-6-phosphate [5])	self-cleavage kobs at 10000 uM GlcN6P (glucosamine-6-phosphate [6])	self-cleavage kobs at 640 uM GlcN6P (glucosamine-6-phosphate [7])
U47G U55G	0.00601 ± 0.0021 s⁻¹		0.000247 ± 4.9e-05 s⁻¹		0.00249 ± 0.001 s⁻¹	0.00706 ± 0.0012 s⁻¹	0.00195 ± 0.00043 s⁻¹
U45G	0.011 ± 0.0012 s⁻¹	2.24 ± 0.3 mM	0.000203 ± 3.8e-06 s⁻¹	0.000679 ± 2.9e-05 s⁻¹	0.00566 ± 0.00017 s⁻¹	0.00968 ± 0.00036 s⁻¹	0.00227 ± 5.8e-05 s⁻¹
G13C C67U	4.46e-05 ± 7.3e-06 s⁻¹				4.34e-05 ± 1.3e-05 s⁻¹	4.04e-05 ± 7.8e-06 s⁻¹	
G7A A36U A39C C68A C71G	1e-05 ± 4e-06 s⁻¹						
A12U A36U C68A	1.17e-05 ± 3.8e-06 s⁻¹						
C11A A52G C58G	1.09e-05 ± 2.8e-06 s⁻¹			< 1e-05 s⁻¹			
A33C U56A	0.000161 ± 5.6e-05 s⁻¹					8.05e-05 ± 1.2e-05 s⁻¹	
A14U G59A	6.06e-05 ± 3.3e-06 s⁻¹	9.99 ± 1 mM	< 1e-05 s⁻¹	< 1e-05 s⁻¹		3.03e-05 ± 1.1e-05 s⁻¹	
G44A U65A	0.000154 ± 9.6e-06 s⁻¹	0.828 ± 0.24 mM			0.000133 ± 3.6e-05 s⁻¹	0.000139 ± 2e-05 s⁻¹	6.51e-05 ± 2.8e-05 s⁻¹
U56C G60A	1.14e-05 ± 1.1e-07 s⁻¹	1.07 ± 0.061 mM					
A6U U65G	3.43e-05 ± 1e-05 s⁻¹		< 1e-05 s⁻¹		4.32e-05 ± 1.3e-05 s⁻¹		
G13U U56A C67U	0.000254 ± 9.5e-05 s⁻¹				0.000115 ± 3.1e-05 s⁻¹	0.000167 ± 3.2e-05 s⁻¹	
G32U A53C	0.000282 ± 0.00012 s⁻¹				0.000105 ± 2.7e-05 s⁻¹	0.000275 ± 4.6e-05 s⁻¹	0.000104 ± 2.3e-05 s⁻¹
A15U A33C	5.35e-05 ± 2.5e-06 s⁻¹	0.813 ± 0.28 mM	< 1e-05 s⁻¹		4.34e-05 ± 1.3e-05 s⁻¹	4.91e-05 ± 6e-06 s⁻¹	
A12U	0.0933 ± 0.014 s⁻¹	1.34 ± 0.23 mM	0.00275 ± 4.9e-05 s⁻¹	0.00899 ± 0.00054 s⁻¹	0.049 ± 0.0042 s⁻¹	0.0963 ± 0.0052 s⁻¹	0.0283 ± 0.0012 s⁻¹
C11U U54C U56C	0.000628 ± 6.2e-05 s⁻¹	8.41 ± 1.2 mM			0.000151 ± 4.7e-05 s⁻¹	0.000337 ± 9.5e-05 s⁻¹	4.18e-05 ± 1.9e-05 s⁻¹
G9C G37C	1.88e-05 ± 8.6e-06 s⁻¹					< 1e-05 s⁻¹	
G37C A53U	2.09e-05 ± 2.3e-06 s⁻¹		< 1e-05 s⁻¹		2.18e-05 ± 9.8e-06 s⁻¹	1.92e-05 ± 8.5e-06 s⁻¹	
G29C U55C	0.00285 ± 0.001 s⁻¹	3.51 ± 1.6 mM	5.28e-05 ± 1.7e-05 s⁻¹	0.00011 ± 1.7e-05 s⁻¹	0.00116 ± 0.00023 s⁻¹	0.00205 ± 0.00062 s⁻¹	0.000561 ± 0.0001 s⁻¹
